# Laboratory results as given in patent publication US5702914, “Use of reporter genes for retinoid receptor screening assays having novel retinoid-associated response elements” (The Salk Institute for Biological Studies).
# B1: HOXB1 DR-2A (dsDNA)
# DNA 1: TGAACTCTTGCCCT
# DNA 2: AGGGCAAGAGTTCA
# B2: HOXB1 DR-2B (dsDNA)
# DNA 1: CGGGCCTGACCTTTTTACCTCGAAG
# DNA 2: CTTCGAGGTAAAAAGGTCAGGCCCG
# Experiments:
# [1] = biological target: T1, RAR alpha:RXR alpha heterodimer (Homo sapiens, UniProt P10276;P19793 P10276:1-462,P19793:1-462); assay: EMSA; less intense than on DR-5; conditions: tags: rabbit reticulocyte lysate (Promega); from pCMX-hRARalpha and pCMX-hRXRalpha; label: 32P
# Procedure: (§1) Gel retardation assays were carried out according to Kliewer et al. (1992, supra). The plasmids pCMX-hRARα and pCMX-hRXRα (Kliewer et al., 1992, supra) were linearlized and capped mRNA was synthesized in vitro using T7 RNA polymerase (Stratagene) according to manufacturer's instructions. Aliquots of mRNA were incubated with rabbit reticulocyte lysate (Promega) for in vitro translation. For gel retardation assay, 5 µl of in vitro translated proteins were preincubated in binding buffer (10 mM Tris[pH8.0], 40 mM KCl, 0.05% Nonidet P-40, 6% glycerol, 1 mM DTT, 5 µg/ml poly[dI.dC]) on ice for 15 minutes. For competition assays, 20 fold molar excess of competitor oligonucleotides was mixed at this step. Oligonucleotides containing DR-5 (RARβ2RARE), HOXB DR-2A (nucleotides 30–43 of SEQ ID NO:1) and HOXB DR-2B (nucleotides 41–54 of SEQ ID NO:2) were used as competitors and probes. Subsequently, ^32P-labelled oligonucleotide probes were added to the reaction mixtures and incubated on ice for 15 minutes. The same oligonucleotides used for the construction of luciferase plasmids were used. Reaction mixtures were resolved by 5% polyacrylamide gel electrophoresis in 0.5×TBE. The dried gels were autoradiographed at −70° C.
# The ability of RAR and RXR to form either homo- or heterodimers on the HOXB1 DR-2A and DR-2B response elements was examined using gel retardation assays. […]
# [2] = biological target: T1, RAR alpha:RXR alpha heterodimer; assay: EMSA; less intense than on DR-5; 74-fold RA induction of TK.Luc(DR2B)2 with both receptors in NT2/D1 cells; conditions: tags: rabbit reticulocyte lysate (Promega); from pCMX-hRARalpha and pCMX-hRXRalpha; label: 32P
# Procedure: as §1, with “Aliquots” for “Gel retardation assays were carried out according to Kliewer et al. (1992, supra). The plasmids pCMX-hRARα and pCMX-hRXRα (Kliewer et al., 1992, supra) were linearlized and capped mRNA was synthesized in vitro using T7 RNA polymerase (Stratagene) according to manufacturer's instructions. Aliquots”
# The ability of RAR and RXR to form either homo- or heterodimers on the HOXB1 DR-2A and DR-2B response elements was examined using gel retardation assays. The expression plasmids pCMX-hRARα and pCMX-hRXRα were linearized with NheI restriction enzyme. Subsequently, capped mRNA was synthesized in vitro using T7 RNA polymerase (Stratagene) according to the manufacturer's instructions. […]
# T1 sequence (P10276 whole entry, chain 1 of 2): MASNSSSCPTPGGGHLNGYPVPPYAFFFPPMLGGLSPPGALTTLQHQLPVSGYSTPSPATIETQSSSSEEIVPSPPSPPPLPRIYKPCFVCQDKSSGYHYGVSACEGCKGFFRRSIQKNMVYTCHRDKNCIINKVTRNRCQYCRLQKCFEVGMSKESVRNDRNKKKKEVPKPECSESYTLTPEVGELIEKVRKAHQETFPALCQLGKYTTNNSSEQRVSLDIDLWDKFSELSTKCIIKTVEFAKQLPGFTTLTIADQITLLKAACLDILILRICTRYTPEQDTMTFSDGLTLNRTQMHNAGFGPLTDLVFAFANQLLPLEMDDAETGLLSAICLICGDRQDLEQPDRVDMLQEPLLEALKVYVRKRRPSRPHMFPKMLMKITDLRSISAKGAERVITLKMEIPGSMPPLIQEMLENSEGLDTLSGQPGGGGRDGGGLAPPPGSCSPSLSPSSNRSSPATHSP
# T1 sequence (P19793 whole entry, chain 2 of 2): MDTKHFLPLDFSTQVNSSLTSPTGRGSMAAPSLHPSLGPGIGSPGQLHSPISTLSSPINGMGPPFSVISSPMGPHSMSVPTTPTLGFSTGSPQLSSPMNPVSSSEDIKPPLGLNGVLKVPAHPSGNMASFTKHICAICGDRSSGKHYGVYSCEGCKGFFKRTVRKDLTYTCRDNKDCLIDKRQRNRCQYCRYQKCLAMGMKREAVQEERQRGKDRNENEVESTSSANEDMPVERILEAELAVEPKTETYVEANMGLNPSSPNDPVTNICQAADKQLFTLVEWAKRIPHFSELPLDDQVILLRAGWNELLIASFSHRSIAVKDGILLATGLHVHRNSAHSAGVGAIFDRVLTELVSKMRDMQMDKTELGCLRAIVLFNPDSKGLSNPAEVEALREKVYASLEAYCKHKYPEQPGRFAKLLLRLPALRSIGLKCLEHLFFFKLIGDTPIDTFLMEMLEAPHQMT
Binder,binding result [1],binding result [2]
B1,binds,–
B2,–,binds
